The data set “cross-linking” concerns the molecule itself. Briefly: cross-linking.
The data set “SEC” deals with the molecule itself. Briefly: SEC.

B1: GST cleaved Grb7RA domain (domain or fragment)
chain: GSHVVKVYSEDGACRSVEVAAGATARHVCEMLVQRAHALSDETWGLVECHPHLALERGLEDHESVVEVQAAWPVGGDSRFVFRKNFAK
In the case of B1, the results for the “stoichiometry N” value in “cross-linking” and in “SEC” were 3 and 2, respectively.

B2: 6His-Grb7RA domain (domain or fragment, UniProt Q14451 102-187, looked up)
chain: HVVKVYSEDGACRSVEVAAGATARHVCEMLVQRAHALSDETWGLVECHPHLALERGLEDHESVVEVQAAWPVGGDSRFVFRKNFAK
For B2, the figures for the “stoichiometry N” value in the data set “cross-linking” and in the data set “SEC” were 2 and 3, respectively.

Values taken from PMC6005685 (Journal of molecular recognition : JMR, 2017).
